This is an account of results in patent US20230365675A1 (published 2023).

What all share (test): FACS, mutant CD33-GFP on 293FT cells
(A flow cytometer gives signals particle by particle.)

The target in assay [1] is T1, Mutant CD33-GFP JS23 (L23N) on 293FT cells (UniProt P20138 18-364).
T1 construct: whole, on cells; not shown: GFP fused to CD33

Assay [2] concerns the target T2, Mutant CD33-GFP JS24 (Q24E) on 293FT cells (UniProt P20138 18-364).
T2 construct: whole, on cells; not shown: GFP fused to CD33

Assay [3] concerns the target T3, Mutant CD33-GFP JS25 (V25M) on 293FT cells (UniProt P20138 18-364).
T3 construct: whole, on cells; not shown: GFP fused to CD33

The target in assay [4] is T4, Mutant CD33-GFP JS28 (S28L) on 293FT cells (UniProt P20138 18-364).
T4 construct: whole, on cells; not shown: GFP fused to CD33

In assay [5] the target is T5, Mutant CD33-GFP M7 (R98D) on 293FT cells (UniProt P20138 18-364).
T5 construct: whole, on cells; not shown: GFP fused to CD33

The target of assay [6] is T6, Mutant CD33-GFP M6 (F43N) on 293FT cells (UniProt P20138 18-364).
T6 construct: whole, on cells; not shown: GFP fused to CD33

Assay [7] deals with T7, Mutant CD33-GFP M10 (Y127A) on 293FT cells (UniProt P20138 18-364).
T7 construct: whole, on cells; not shown: GFP fused to CD33

Assay [8] has as its target T8, Mutant CD33-GFP M8 (K52A) on 293FT cells (UniProt P20138 18-364).
T8 construct: whole, on cells; not shown: GFP fused to CD33

Assay [9] addresses T9, Mutant CD33-GFP M9 (Y49, 50A) on 293FT cells (UniProt P20138 18-364).
T9 construct: whole, on cells; Read as the double mutant Y49A + Y50A; not shown: GFP fused to CD33

For assay [10], the target named is Mutant CD33-GFP M19 (348ATAI) on 293FT cells (UniProt P20138).
Assay [11] has as its target Mutant CD33-GFP M16 (4889AII) on 293FT cells (UniProt P20138).
In assay [12] the target is Mutant CD33-GFP M18 (353AAL) on 293FT cells (UniProt P20138).
Assay [13] has as its target T10, Mutant CD33-GFP M12 (G88S) on 293FT cells (UniProt P20138 18-364).
T10 construct: whole, on cells; not shown: GFP fused to CD33

Assay [14] concerns the target T11, Mutant CD33-GFP M13 (R91E) on 293FT cells (UniProt P20138 18-364).
T11 construct: whole, on cells; not shown: GFP fused to CD33

Assay [15] has as its target T12, Mutant CD33-GFP M15 (Q171A) on 293FT cells (UniProt P20138 18-364).
T12 construct: whole, on cells; not shown: GFP fused to CD33

For assay [16], the target named is T13, Mutant CD33-GFP M14 (E170R) on 293FT cells (UniProt P20138 18-364).
T13 construct: whole, on cells; not shown: GFP fused to CD33

Assay [17] deals with T14, Mutant CD33-GFP M11 (L78T) on 293FT cells (UniProt P20138 18-364).
T14 construct: whole, on cells; not shown: GFP fused to CD33

The target of assay [18] is T15, Mutant CD33-GFP M2 (H45E) on 293FT cells (UniProt P20138 18-364).
T15 construct: whole, on cells; not shown: GFP fused to CD33

Assay [19] has as its target T16, Mutant CD33-GFP M5 (AEAD), quadruple mutant, on 293FT cells (UniProt P20138 18-364).
T16 construct: whole, on cells; substitutions left empty; not shown: GFP fused to CD33

For assay [20], the target named is T17, Mutant CD33-GFP M3 (N99A) on 293FT cells (UniProt P20138 18-364).
T17 construct: whole, on cells; not shown: GFP fused to CD33

Assay [21] deals with T18, Mutant CD33-GFP M1 (W22A) on 293FT cells (UniProt P20138 18-364).
T18 construct: whole, on cells; not shown: GFP fused to CD33

The target in assay [22] is T19, Mutant CD33-GFP M4 (R122D) on 293FT cells (UniProt P20138 18-364).
T19 construct: whole, on cells; not shown: GFP fused to CD33
T19 sequence (P20138 18-364 R122D): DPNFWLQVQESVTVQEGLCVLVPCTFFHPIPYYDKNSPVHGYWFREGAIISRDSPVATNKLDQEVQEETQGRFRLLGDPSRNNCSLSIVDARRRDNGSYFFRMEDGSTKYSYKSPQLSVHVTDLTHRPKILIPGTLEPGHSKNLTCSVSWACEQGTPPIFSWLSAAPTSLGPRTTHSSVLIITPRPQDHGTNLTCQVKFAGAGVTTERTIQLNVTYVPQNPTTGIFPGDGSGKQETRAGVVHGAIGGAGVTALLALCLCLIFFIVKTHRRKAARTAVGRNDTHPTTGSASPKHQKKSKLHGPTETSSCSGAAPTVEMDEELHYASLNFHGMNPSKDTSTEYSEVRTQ

T17 sequence (P20138 18-364 N99A): as the sequence (P20138 18-364 R122D) above, with N82A, D105R counted along it
T3 sequence (P20138 18-364 V25M): as the sequence (P20138 18-364 R122D) above, with V8M, D105R counted along it
T14 sequence (P20138 18-364 L78T): as the sequence (P20138 18-364 R122D) above, with L61T, D105R counted along it
T5 sequence (P20138 18-364 R98D): as the sequence (P20138 18-364 R122D) above, with R81D, D105R counted along it
T11 sequence (P20138 18-364 R91E): as the sequence (P20138 18-364 R122D) above, with R74E, D105R counted along it
T2 sequence (P20138 18-364 Q24E): as the sequence (P20138 18-364 R122D) above, with Q7E, D105R counted along it
T16 sequence (P20138 other isoform, or with tags, fused parts or gaps mutant): as the sequence (P20138 18-364 R122D) above, with W5A, H28E, N82A counted along it
T12 sequence (P20138 18-364 Q171A): as the sequence (P20138 18-364 R122D) above, with D105R, Q154A counted along it
T15 sequence (P20138 18-364 H45E): as the sequence (P20138 18-364 R122D) above, with H28E, D105R counted along it
T7 sequence (P20138 18-364 Y127A): as the sequence (P20138 18-364 R122D) above, with D105R, Y110A counted along it
T4 sequence (P20138 18-364 S28L): as the sequence (P20138 18-364 R122D) above, with S11L, D105R counted along it
T8 sequence (P20138 18-364 K52A): as the sequence (P20138 18-364 R122D) above, with K35A, D105R counted along it
T18 sequence (P20138 18-364 W22A): as the sequence (P20138 18-364 R122D) above, with W5A, D105R counted along it
T9 sequence (P20138 other isoform, or with tags, fused parts or gaps mutant): as the sequence (P20138 18-364 R122D) above, with Y32A, Y33A, D105R counted along it
T10 sequence (P20138 18-364 G88S): as the sequence (P20138 18-364 R122D) above, with G71S, D105R counted along it
T13 sequence (P20138 18-364 E170R): as the sequence (P20138 18-364 R122D) above, with D105R, E153R counted along it
T6 sequence (P20138 18-364 F43N): as the sequence (P20138 18-364 R122D) above, with F26N, D105R counted along it
T1 sequence (P20138 18-364 L23N): as the sequence (P20138 18-364 R122D) above, with L6N, D105R counted along it

B1: hu195 (antibody, V domains shown)
VH: QVQLVQSGAEVKKPGSSVKVSCKASGYTFTDYNMHWVRQAPGQGLEWIGYIYPYNGGTGYNCIKFKSKATITADESTNTAYMELSSLRSEDTAVYYCARGRPAMDYWGQGTLVTVSS
VL: DIQMTQSPSSLSASVGDRVTITCRASESVDNYGISFMNWFQQKPGKAPKLLIYAASNQGSGVPSRFSGSGSGTDFTLTISSLQPDDFATYYCQQSKEVPWTFGQGTKVEIK
As for B1, the FACS binding data in assay [1] stood at 99.4; in [2], 72.5; in assay [3] it was 99.8; in assay [4] it was 99.9; in assay [5], 98.4; in [6], 99.4. The FACS binding data in [7] was 92.5; in assay [8] it was 99.5; in [9], 94.4; in assay [10], 99.7; in assay [11] it was 97.2; in assay [12], 99.4. Moreover, the FACS binding data in assay [13] worked out at 98.3; in assay [14] it was 98.1; in [15], 97.6; in assay [16], 98.2; in assay [17], 86.8; in [18], 99.6. The FACS binding data in assay [19] came to 0.26; in assay [20] it was 99.5; in [21] it was 99.3; in assay [22], 99.6.
